The record followed here is publication PMC8728441, “Biosynthesis of the redox cofactor mycofactocin is controlled by the transcriptional regulator MftR and induced by long-chain acyl-CoA species” (The Journal of Biological Chemistry, 2021).

Positions count from the first letter of the chain named.

Series [1] deals with T1, MftR WT (Mycobacterium smegmatis mc2155, UniProt A0QSB5 1-200).
T1 sequence: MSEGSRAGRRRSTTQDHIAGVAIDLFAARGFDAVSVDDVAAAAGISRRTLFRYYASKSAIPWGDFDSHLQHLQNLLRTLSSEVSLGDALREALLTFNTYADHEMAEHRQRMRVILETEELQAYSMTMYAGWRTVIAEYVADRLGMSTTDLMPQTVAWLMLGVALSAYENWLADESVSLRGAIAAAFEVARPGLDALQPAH
Description: EMSA. As to conditions: EMSA: 50 mM Hepes, 50 mM NaCl, 0.1 mM EDTA, pH 7.5, room temperature 10 min, 5% PAGE in 1x TBE on ice; footprinting: 30 C 30 min; FP conditions not in material.

In series [2] the target is T2, MftR M127A (Mycobacterium smegmatis mc2155, UniProt A0QSB5 1-200, M127A).
T2 sequence: T1 sequence with M127A
The series can be described thus: fluorescence polarization; EMSA: 50 mM Hepes, 50 mM NaCl, 0.1 mM EDTA, pH 7.5, room temperature 10 min, 5% PAGE in 1x TBE on ice; footprinting: 30 C 30 min; FP conditions not in material. Text fold changes for R29A/R48A and L120R/M127A are swapped relative to Table 2; table values used. As to conditions: protein: recombinant; tags: His-tag (pET-28a); chain copies: 2; label: 6-FAM; blunt.

In series [3] the target is T3, MftR R29A (Mycobacterium smegmatis mc2155, UniProt A0QSB5 1-200, R29A).
T3 sequence: T1 sequence with R29A
Described as above. As to conditions: protein: recombinant; tags: His-tag (pET-28a); chain copies: 2; label: 6-FAM; blunt.

The target of series [4] is T4, MftR L120R (Mycobacterium smegmatis mc2155, UniProt A0QSB5 1-200, L120R).
T4 sequence: T1 sequence with L120R
Described as above. As to conditions: protein: recombinant; tags: His-tag (pET-28a); chain copies: 2; label: 6-FAM; blunt.

Series [5] addresses T5, MftR D38A (Mycobacterium smegmatis mc2155, UniProt A0QSB5 1-200, D38A).
T5 sequence: T1 sequence with D38A
The series is described as above. To be noted: protein: recombinant; tags: His-tag (pET-28a); chain copies: 2; label: 6-FAM; blunt.

Series [6] addresses T1, MftR WT. Described as above. As to conditions: protein: recombinant; tags: His-tag (pET-28a, NdeI/XhoI); chain copies: 2; label: 6-FAM; blunt.
The target of series [7] is T6, MftR R48A (Mycobacterium smegmatis mc2155, UniProt A0QSB5 1-200, R48A).
T6 sequence: T1 sequence with R48A
The description is as above. To be noted: protein: recombinant; tags: His-tag (pET-28a); chain copies: 2; label: 6-FAM; blunt.

The target of series [8] is T7, MftR D16R (Mycobacterium smegmatis mc2155, UniProt A0QSB5 1-200, D16R).
T7 sequence: T1 sequence with D16R
Description: EMSA; 100 uM oleoyl-CoA; EMSA: 50 mM Hepes, 50 mM NaCl, 0.1 mM EDTA, pH 7.5, room temperature 10 min, 5% PAGE in 1x TBE on ice; footprinting: 30 C 30 min; FP conditions not in material. Text fold changes for R29A/R48A and L120R/M127A are swapped relative to Table 2; table values used. To be noted: protein: recombinant; tags: His-tag (pET-28a); chain copies: 2; label: 6-FAM; blunt.

The target of series [9] is T8, MftR H68A (Mycobacterium smegmatis mc2155, UniProt A0QSB5 1-200, H68A).
T8 sequence: T1 sequence with H68A
The description is as above. As to conditions: protein: recombinant; tags: His-tag (pET-28a); chain copies: 2; label: 6-FAM; blunt.

For Pmft, the Kd in series [1] was determined as 0.6 µM.

B1: FAM-Omft (dsDNA)
DNA 1: TCCATTCTGGCACTCGATGCCATATAT
DNA 2: ATATATGGCATCGAGTGCCAGAATGGA
On to B1, for which the Kd in series [2] worked out at 13 ± 6 µM; in series [3], 20.5 ± 2 µM; in series [4] it was 28 ± 6 µM; in [6], 1.3 ± 0.6 µM; in [7], 13 ± 1.1 µM. For the same molecule, the figures for the binding result in series [5], in series [8] and in [9] were “no binding”, “binds” and “binds”, respectively.
